In this data set the target is kappa-casein of bovine (cow's) milk, P02668.
Sequence of kappa-casein of bovine (cow's) milk, P02668 (P02668 22-190): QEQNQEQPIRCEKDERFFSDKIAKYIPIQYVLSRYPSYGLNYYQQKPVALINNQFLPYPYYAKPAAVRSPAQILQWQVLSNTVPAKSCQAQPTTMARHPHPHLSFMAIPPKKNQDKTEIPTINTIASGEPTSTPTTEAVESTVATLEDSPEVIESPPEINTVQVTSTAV

B1: camel chymosin (Camelus dromedarius chymosin, recombinantly produced) (protein)
chain: GKVAREPLTSYLDSQYFGKIYIGTPPQEFTVVFDTGSSDLWVPSIYCKSNVCKNHHRFDPRKSSTFRNLGKPLSIHYGTGSMEGFLGYDTVTVSNIVDPNQTVGLSTEQPGEVFTYSEFDGILGLAYPSLASEYSVPVFDNMMDRHLVARDLFSVYMDRNGQGSMLTLGAIDPSYYTGSLHWVPVTLQQYWQFTVDSVTINGVAVACVGGCQAILDTGTSVLFGPSSDILKIQMAIGATENRYGEFDVNCGNLRSMPTVVFEINGRDYPLSPSAYTSKDQGFCTSGFQGDNNSELWILGDVFIREYYSVFDRANNRVGLAKAI
As to B1, the Specific activity (IMCU/mg) came to 462 IMCU/mg and the Time to clotting was in the range of 12 to 13 min.

B2: bovine (calf) chymosin B, recombinant (protein)
chain: GEVASVPLTNYLDSQYFGKIYLGTPPQEFTVLFDTGSSDFWVPSIYCKSNACKNHQRFDPRKSSTFQNLGKPLSIHYGTGSMQGILGYDTVTVSNIVDIQQTVGLSTQEPGDVFTYAEFDGILGMAYPSLASEYSIPVFDNMMNRHLVAQDLFSVYMDRNGQESMLTLGAIDPSYYTGSLHWVPVTVQQYWQFTVDSVTISGVVVACEGGCQAILDTGTSKLVGPSSDILNIQQAIGATQNQYGEFDIDCDNLSYMPTVVFEINGKMYPLTPSAYTSQDQGFCTSGFQSENHSQKWILGDVFIREYYSVFDRANNLVGLAKAI
In turn, B2 yielded a Specific activity (IMCU/mg) of 223 IMCU/mg and a Time to clotting of 12 to 13 min.
